In US20230212587A1, “Mutant Hydroxyphenylpyruvate Dioxygenase Polypeptide, Encoding Gene Thereof and Use Therefor” (Beijing Dabeinong Biotechnology Co., Ltd., priority 2019, published 2023):

B1: SbHPPD-02: native Sorghum bicolor HPPD, SEQ ID NO: 63 (protein)
chain: MPPTPTTAAATGAAVAAASAEQAAFRLVGHRNFVRVNPRSDRFHTLAFHHVELWCADAASAAGRFSFGLGAPLAARSDLSTGNTAHASLLLRSGALAFLFTAPYAHGADAATASLPSFSAAEARRFAADHGLAVRAVALRVADAEDAFRASVAAGARPAFEPVELGLGFRLAEVELYGDVVLRYVSYPDDADASFLPGFVGVTSPGAADYGLRRFDHIVGNVPELAPAAAYFAGFTGFHEFAEFTAEDVGTTESGLNSMVLANNAENVLLPLNEPVHGTKRRSQIQTYLDHHGGPGVQHMALASDDVLRTLREMQARSAMGGFEFMAPPAPEYYDGVRRRAGDVLTEAQIKECQELGVLVDRDDQGVLLQIFTKPVGDRPTLFLEIIQRIGCMEKDEKGQEYQKGGCGGFGKGNFSQLFKSIEDYEKSLEAKQAAAAQGS
modifications: Sorghum bicolor; SbHPPD Amino Acid Sequence
B2: SiHPPD-02: native Setaria italica HPPD, SEQ ID NO: 57 (protein, listed as Setaria italica)
chain: MPPTPTPAAAAPGAAAAPAAGDQAAFRLVGHRGFVRVNPRSDRFHTLSFHHVELWCADATSAAGRFSFGLGAPLAARSDLSTGNSAHASLLLRSGSLAFLFTAPYAHGVDAATASLPSFSAPAARSFAADHGLAVRAIGLRVADAEDAFRASVAAGARPAFKPVELGLGFRLAEVELYGDVVLRYVSYPDAEDAPFLPGFENVNNPGALNYGLRRFDHIVGNVPELAPVAAYVAGFTGFHEFAEFTAEDVGTAESGLNSMVLANNSETVLIPLNEPVHGTKRRSQIQTFLDHNGGPGVQHIALASDDVLRTLREMQARSAMGGFEFMAAPPPDYYEGVRRRAGDVLSEAQIKECQELGVLVDRDDQGVLLQIFTKPVGDRQTLFLEIIQRIGCMEKDEQGQEYQKGGCGGFGKGNFSQLFKSIEDYEKSLESKQAAAVQGS
modifications: SiHPPD Amino Acid Sequence
B3: SiHPPDm-F372A-02: Setaria italica HPPD mutant F372A, SEQ ID NO: 60 (protein)
chain: MPPTPTPAAAAPGAAAAPAAGDQAAFRLVGHRGFVRVNPRSDRFHTLSFHHVELWCADATSAAGRFSFGLGAPLAARSDLSTGNSAHASLLLRSGSLAFLFTAPYAHGVDAATASLPSFSAPAARSFAADHGLAVRAIGLRVADAEDAFRASVAAGARPAFKPVELGLGFRLAEVELYGDVVLRYVSYPDAEDAPFLPGFENVNNPGALNYGLRRFDHIVGNVPELAPVAAYVAGFTGFHEFAEFTAEDVGTAESGLNSMVLANNSETVLIPLNEPVHGTKRRSQIQTFLDHNGGPGVQHIALASDDVLRTLREMQARSAMGGFEFMAAPPPDYYEGVRRRAGDVLSEAQIKECQELGVLVDRDDQGVLLQIATKPVGDRQTLFLEIIQRIGCMEKDEQGQEYQKGGCGGFGKGNFSQLFKSIEDYEKSLESKQAAAVQGS
modifications: SiHPPDm-F372A Amino Acid Sequence
B4: HvHPPD-02: native Hordeum vulgare HPPD, SEQ ID NO: 51 (protein)
chain: MPPTPTTPAATGAAAAVTPEHARPHRMVRFNPRSDRFHTLSFHHVEFWCADAASAAGRFAFALGAPLAARSDLSTGNSAHASQLLRSGSLAFLFTAPYANGCDAATASLPSFSADAARRFSADHGIAVRSVALRVADAAEAFRASRRRGARPAFAPVDLGRGFAFAEVELYGDVVLRFVSHPDGTDVPFLPGFEGVTNPDAVDYGLTRFDHVVGNVPELAPAAAYIAGFTGFHEFAEFTAEDVGTTESGLNSVVLANNSEGVLLPLNEPVHGTKRRSQIQTFLEHHGGPGVQHIAVASSDVLRTLRKMRARSAMGGFDFLPPPLPKYYEGVRRLAGDVLSEAQIKECQELGVLVDRDDQGVLLQIFTKPVGDRPTLFLEMIQRIGCMEKDERGEEYQKGGCGGFGKGNFSELFKSIEDYEKSLEAKQSAAVQGS
modifications: Hordeum vulgare; HvHPPD Amino Acid Sequence
B5: HvHPPDm-F372A-02: Hordeum vulgare HPPD mutant F372A, SEQ ID NO: 54 (protein)
chain: MPPTPTTPAATGAAAAVTPEHARPHRMVRFNPRSDRFHTLSFHHVEFWCADAASAAGRFAFALGAPLAARSDLSTGNSAHASQLLRSGSLAFLFTAPYANGCDAATASLPSFSADAARRFSADHGIAVRSVALRVADAAEAFRASRRRGARPAFAPVDLGRGFAFAEVELYGDVVLRFVSHPDGTDVPFLPGFEGVTNPDAVDYGLTRFDHVVGNVPELAPAAAYIAGFTGFHEFAEFTAEDVGTTESGLNSVVLANNSEGVLLPLNEPVHGTKRRSQIQTFLEHHGGPGVQHIAVASSDVLRTLRKMRARSAMGGFDFLPPPLPKYYEGVRRLAGDVLSEAQIKECQELGVLVDRDDQGVLLQIATKPVGDRPTLFLEMIQRIGCMEKDERGEEYQKGGCGGFGKGNFSELFKSIEDYEKSLEAKQSAAVQGS
modifications: HvHPPDm-F372A Amino Acid Sequence

System: Arabidopsis thaliana T1 plants
Assay: Topramezone tolerance of transgenic Arabidopsis thaliana T1 plants (pesticide damage grade by bleached leaf area, score, resistance evaluation)
Assay type: in vivo
Details: HPPDs from different species, 7 DAT; for Classification and statistics of pesticide damage grade Grade 0 / Classification and statistics of pesticide damage grade Grade 1 / Classification and statistics of pesticide damage grade Grade 2 / Classification and statistics of pesticide damage grade Grade 3: number of plants (of 16) in this grade; for Scores: score for pesticide damage 0-100
How it was run: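 Eighteen days after sowing, wild-type and HPPD-transgenic T1 Arabidopsis receive a topramezone spray at 1×, 2× or 4× field rate (25–100 g ai/ha) or water. Seven days later each plant is graded by its proportion of bleached leaf area.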

Molecule	Classification and statistics of pesticide damage grade Grade 0 (topramezone 25 g ai/ha (1x))	Classification and statistics of pesticide damage grade Grade 1 (topramezone 25 g ai/ha (1x))	Classification and statistics of pesticide damage grade Grade 2 (topramezone 25 g ai/ha (1x))	Classification and statistics of pesticide damage grade Grade 3 (topramezone 25 g ai/ha (1x))	Classification and statistics of pesticide damage grade Grade 0 (topramezone 100 g ai/ha (4x))	Classification and statistics of pesticide damage grade Grade 1 (topramezone 100 g ai/ha (4x))	Classification and statistics of pesticide damage grade Grade 2 (topramezone 100 g ai/ha (4x))	Classification and statistics of pesticide damage grade Grade 3 (topramezone 100 g ai/ha (4x))	Scores (topramezone 25 g ai/ha (1x))	Scores (topramezone 100 g ai/ha (4x))	Resistance evaluation (topramezone 25 g ai/ha (1x))	Resistance evaluation (topramezone 100 g ai/ha (4x))
B1	0	0	0	16	0	0	0	16	100	100	non-resistant (non-resistant plants (scores 68-100))	non-resistant (non-resistant plants (scores 68-100))
B2	0	0	0	16	0	0	0	16	100	100	non-resistant (non-resistant plants (scores 68-100))	non-resistant (non-resistant plants (scores 68-100))
B3	13	2	1	0	6	8	2	0	8	25	highly resistant (highly resistant plants (scores 0-15))	moderately resistant (moderately resistant plants (scores 16-33))
B4	0	0	0	16	0	0	0	16	100	100	non-resistant (non-resistant plants (scores 68-100))	non-resistant (non-resistant plants (scores 68-100))
B5	15	1	0	0	8	8	0	0	2	17	highly resistant (highly resistant plants (scores 0-15))	moderately resistant (moderately resistant plants (scores 16-33))
